Test [1] has as its system Notch3. In words: Notch inhibition assay in co-culture format (U2OS Notch3 reporter with HEK293T expressing DLL4, DLL1, JAG1 or JAG2). To be noted: 3 μM soluble protein; signaling by DLL1, DLL4, JAG1 and JAG2 expressing HEK293T cells. The test is classed as cell-based, human. On the procedure: For inhibition of Notch ligand-expressing cell lines, on day one, U2OS Notch3 reporter cells (signal receivers) were detached with trypsin-EDTA, washed with DPBS, and added to 6-well plates. On day two, U2OS cells were transfected as described above. On day three, signal receiver cells were detached with trypsin-EDTA, and dilutions of 400,000 cells/mL were prepared in DMEM. On the one hand, soluble DLL4 variants were prepared at 6,000 nM in DPBS, combined in 1:1 dilution with signal receiver cells, and incubated for 15 min at RT. On the other hand, HEK293T-expressing WT DLL4, DLL1, JAG1, JAG2 were detached with trypsin-EDTA, washed with DPBS and 200,000 cells/mL stocks prepared in DMEM. One hundred microliters of both signal senders and pre-blocked signal receivers were combined in cell ratio 1:1 and incubated for 24 hours at 37° C., and 5% CO2. On day four, luciferase firefly and Renilla signals were determined with Dual-Glo luciferase assay system (Promega) using a GloMax luminometer (Promega). Doxycycline at 2 μg/mL was kept for all the conditions. A luminescence ratio firefly:Renilla was determined for every well. Notch activation of each Notch3:ligand pair was normalized to the signal of Notch3 reporters in the presence of HEK293T lacking ligands. Each Notch signaling pair was set at 100% activation and soluble DLL4 treatments were relative to its corresponding pair. […]

The subject of a further test is Notch2. Briefly: U2OS luciferase reporter assay, ligands on streptavidin plates. Format: cell-based, human. The following applies: 50 nM immobilized. How it is done:
(§1) For U2OS reporter cells, approximately 5×10E5 cells were plated into 6-well plates (Falcon) and let to adhere overnight at 37° C., 5% CO2 in DMEM media (Cytiva). On day two, media was replaced with serum-free DMEM and cells transfected with luciferase vectors. Cationic lipoplexes were generated for 15 min at room temperature by mixing 10 μL of Lipofectamine 2000 (Invitrogen), 2.5 μg of Gal4-firefly luciferase reporter, and 50 ng of pRL-TK Renilla luciferase vector as internal control (ratio 1:5, Lipo:DNA). On day three, streptavidin plates were coupled with DLL4 ligands like described above using 10-fold serial dilutions starting at 50 nM, and transfected U2OS cells were detached with Trypsin-EDTA, washed with DPBS, and counted in the microscope. Twenty-thousand reporter cells were added to wells using 200 μL of DMEM media containing 2 μg/mL of doxycycline (Sigma) to induce Notch-Gal4 expression. Next, signaling plates were incubated for 24 hours at 37° C. and 5% CO2. On day four, luciferase firefly and Renilla signals were determined with Dual-Glo luciferase assay system (Promega) using a GloMax luminometer (Promega). A luminescence ratio firefly:Renilla was determined for every well and normalized to the signal of a non-related control protein (PA domain of RNF128). Notch activation is represented as the mean fold-change over the control±s.d. of three independent biological replicates.

The test system of test [2] is Notch3. The description is as above. Format: cell-based, human. To be noted: 50 nM immobilized. On the procedure:
as §1

For test [3], the system named is Notch1. The test is described as above. The test is classed as cell-based, human. The following applies: 50 nM immobilized. How it is done:
as §1

Test [4] has as its system Notch1. In words: Notch activation assay with ligands non-specifically adsorbed to plates (CHO-K1 N1-Gal4 fluorescent reporter). The following applies: for EC50 for Notch1 activation: non-specifically adsorbed to tissue culture plates, 24 hours. The test is classed as cell-based. How it is done:
On day one, 2-fold serial dilutions of non-biotinylated DLL4 recombinant proteins (N-EGF5) were prepared in 100 μL of DPBS and used to coat 96-well plates (Coastar) for 1 hour at 37° C. WT DLL4 started at 66.56 ng/mm^2 and Delta^MAX at 0.33 ng/mm^2. Then, the wells were washed three times with 200 μL of DPBS to remove unbound proteins. Next, CHO-K1 N1-Gal4 cells in culture were detached with trypsin-EDTA 0.25% (Gibco) and manually counted. Appropriate dilutions were prepared in α-MEM media to ensure 30,000 CHO-K1 N1-Gal4 cells per well in 200 μL. Ligand-coated plates and reporter cell lines were incubated for 24 hours at 37° C. and 5% CO2. On day two, CHO-K1 N1-Gal4 cells were washed with 200 μL DPBS, detached with 30 μL of trypsin-EDTA 0.25%, and quenched with 200 μL of α-MEM media. Finally, cells were resuspended and H2B-mCitrine signal was measured by flow cytometry (BD Accuri C6 plus). CHO-K1 N1-Gal4 and ligand-lacking wells were used as a negative control. The measurements represent the mean fluorescent intensity as percentage of Notch activation±s.d. of three biological replicates. Notch activation was reference-subtracted from a well coated with 0.5% BSA containing CHO-K1 N1-Gal4 cells. Gating strategies for this experiment are detailed in FIG. 13A.

Test [5] concerns Notch1. In words: Notch activation with ligand-oriented coupling on streptavidin plates (CHO-K1 N1-Gal4 reporter). Format: cell-based. The following applies: for EC50: C-terminally biotinylated, streptavidin-coated plates (oriented coupling), 24 hours; for maximum level of Notch1 activation, oriented coupling versus non-specific adsorption: FIG. 3B. How it is done:
For CHO-K1 N1-Gal4 reporters, on day one, tissue culture 96-well plates (Coastar) were pre-treated with 100 μL of streptavidin at 10 μg/mL (VWR) for 1 hour at 37° C., washed three times with 200 μL DPBS (Corning), and blocked with 100 μL BSA 2% (VWR) for 1 hour at 37° C. Excess BSA was removed by washing three times with 200 μL DPBS (Corning), and 100 μL of DPBS containing biotinylated DLL4 proteins were coupled to streptavidin for 1 hour at 37° C. (2-fold serial dilutions starting at 50 nM). Non-coupled DLL4 proteins were removed by washing three times with 200 μL DPBS. Next, Notch reporter cells in culture were detached with trypsin-EDTA 0.25% (Gibco), and 30,000 cells in α-MEM media (200 μL) were added into individual wells. Assay plates were incubated for 24 hours at 37° C., and 5% CO2. On day two, CHO-K1 N1-Gal4 cells were washed with 200 μL DPBS, detached with 30 μL of trypsin-EDTA 0.25%, and 200 μL of α-MEM media added. Cells were resuspended and Notch activation was measured as a function of fluorescence by flow cytometry (BD Accuri C6 plus). CHO-K1 N1-Gal4 cells and lacking-ligand wells were used as a negative control. The measurements represent the mean fluorescent intensity as percentage of Notch activation±s.d. of three biological replicates. Notch activation was reference-subtracted from a well coated with a non-related control protein (PA domain of RNF128).

Sequence of Notch1 (P46531 19-1664 limits assumed): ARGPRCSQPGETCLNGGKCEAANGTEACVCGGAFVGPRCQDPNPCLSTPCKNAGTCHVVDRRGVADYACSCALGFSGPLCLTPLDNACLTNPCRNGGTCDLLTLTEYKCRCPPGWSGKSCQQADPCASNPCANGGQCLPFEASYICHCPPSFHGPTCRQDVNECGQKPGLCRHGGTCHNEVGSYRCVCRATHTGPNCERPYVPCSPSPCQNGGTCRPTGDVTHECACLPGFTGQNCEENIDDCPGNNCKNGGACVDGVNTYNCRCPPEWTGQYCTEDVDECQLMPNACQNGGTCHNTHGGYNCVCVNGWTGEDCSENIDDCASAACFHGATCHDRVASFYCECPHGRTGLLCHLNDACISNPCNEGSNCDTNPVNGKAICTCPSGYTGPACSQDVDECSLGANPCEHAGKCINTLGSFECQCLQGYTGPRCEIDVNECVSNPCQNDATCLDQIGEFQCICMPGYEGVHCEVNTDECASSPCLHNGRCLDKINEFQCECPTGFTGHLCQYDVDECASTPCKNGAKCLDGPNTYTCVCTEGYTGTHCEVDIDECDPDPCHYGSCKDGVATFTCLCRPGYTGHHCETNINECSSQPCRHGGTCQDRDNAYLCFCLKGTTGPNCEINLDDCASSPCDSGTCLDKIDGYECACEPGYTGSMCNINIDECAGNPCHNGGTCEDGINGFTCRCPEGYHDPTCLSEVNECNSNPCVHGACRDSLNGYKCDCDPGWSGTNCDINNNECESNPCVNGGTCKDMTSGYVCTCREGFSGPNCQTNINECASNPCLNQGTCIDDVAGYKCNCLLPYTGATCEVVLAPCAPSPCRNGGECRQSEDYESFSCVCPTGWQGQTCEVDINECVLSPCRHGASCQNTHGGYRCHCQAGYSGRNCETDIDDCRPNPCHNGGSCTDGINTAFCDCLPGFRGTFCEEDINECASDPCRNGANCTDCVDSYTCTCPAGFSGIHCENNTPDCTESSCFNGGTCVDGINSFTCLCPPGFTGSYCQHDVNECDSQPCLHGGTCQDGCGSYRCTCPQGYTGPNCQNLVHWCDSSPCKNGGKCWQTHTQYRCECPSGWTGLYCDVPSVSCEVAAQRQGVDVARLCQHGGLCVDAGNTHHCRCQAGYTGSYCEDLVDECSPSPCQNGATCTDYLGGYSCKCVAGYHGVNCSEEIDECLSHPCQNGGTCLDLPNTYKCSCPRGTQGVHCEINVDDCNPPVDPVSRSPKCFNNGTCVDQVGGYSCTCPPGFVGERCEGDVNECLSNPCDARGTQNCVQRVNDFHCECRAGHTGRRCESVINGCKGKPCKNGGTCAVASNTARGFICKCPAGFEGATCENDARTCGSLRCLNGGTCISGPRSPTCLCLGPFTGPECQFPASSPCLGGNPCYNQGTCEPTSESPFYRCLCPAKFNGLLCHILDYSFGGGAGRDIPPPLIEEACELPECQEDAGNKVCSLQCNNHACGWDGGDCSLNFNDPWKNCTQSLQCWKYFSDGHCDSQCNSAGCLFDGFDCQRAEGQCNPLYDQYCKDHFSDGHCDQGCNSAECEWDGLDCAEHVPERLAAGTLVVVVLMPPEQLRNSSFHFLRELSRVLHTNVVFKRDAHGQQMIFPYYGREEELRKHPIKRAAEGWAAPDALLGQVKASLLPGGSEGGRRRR
Sequence of Notch1 (P46531 1665-1756 limits assumed): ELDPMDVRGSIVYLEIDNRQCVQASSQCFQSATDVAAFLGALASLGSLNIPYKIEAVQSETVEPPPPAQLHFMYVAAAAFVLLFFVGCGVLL
Sequence of Notch3 (Q9UM47 197-505 limits assumed): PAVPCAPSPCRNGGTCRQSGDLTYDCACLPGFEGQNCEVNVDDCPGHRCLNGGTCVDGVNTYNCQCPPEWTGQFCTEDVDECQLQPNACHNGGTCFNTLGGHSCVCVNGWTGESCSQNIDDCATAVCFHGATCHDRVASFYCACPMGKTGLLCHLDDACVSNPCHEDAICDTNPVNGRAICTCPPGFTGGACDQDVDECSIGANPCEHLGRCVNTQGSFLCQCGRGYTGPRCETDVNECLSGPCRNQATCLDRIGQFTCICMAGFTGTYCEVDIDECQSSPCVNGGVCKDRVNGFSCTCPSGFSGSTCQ
Sequence of Notch2 (Q04721 221-530 limits assumed): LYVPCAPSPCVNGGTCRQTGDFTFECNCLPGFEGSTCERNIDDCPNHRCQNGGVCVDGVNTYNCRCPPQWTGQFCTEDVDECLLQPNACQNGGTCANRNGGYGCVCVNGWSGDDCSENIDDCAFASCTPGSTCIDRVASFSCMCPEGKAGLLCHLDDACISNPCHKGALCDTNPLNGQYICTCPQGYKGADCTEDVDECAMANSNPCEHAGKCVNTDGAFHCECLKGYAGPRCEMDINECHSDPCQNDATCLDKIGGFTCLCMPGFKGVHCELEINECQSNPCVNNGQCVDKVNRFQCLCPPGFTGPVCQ

B1: Delta^MAX: engineered human DLL4 consensus variant with 10 mutations combining DLL4.v1 and DLL4.v2 mutations; sequence matches SEQ ID NO: 4/10 (protein)
chain: SSVFQLQLQEFINERGVLASGRPCEPGCRTFFRVCLKHFQAVVSPGPCTFGTVSTPVLGTNSFAVRDDSSGGGRNPLQLPLNFTWPGTFSLIIEAWHAPGDDLRPEALPPDALISKFAIQGSLAVGQNWLLDEQTSTLTRLRYSYRVICSDNYYGDNCSRLCKKRNDYFGHYVCQPDGNPSCLPGWTGEYCQQPICLSGCHEQNGYCSKPAECLCRPGWQGRLCNECIPHPGCRHGTCSTPWQCLCDEGWGGLYCDQDLNYCTHHSPCKNGATCRNSGPRSYTCTCRPGYTGVDCELELSECDSNPCRNGGSCKDQEDGYHCLCPPGYYGLHCEHSTLSCADSPCFNGGSCRERNQGANYACECPPNFTGSNCE
In the case of B1, the “reduction in reporter signal” value with Notch3 [1] is recorded as 70-85%. Also, the “increase in Notch2 signaling vs WT DLL4” value in the test with Notch2 is 2.5 fold. In addition, the “increase in Notch3 signaling vs WT DLL4” value in the test on Notch3 [2] stood at 3 fold. Besides, in the test on Notch1 [3], the “increase in Notch1 signaling vs WT DLL4” value worked out at 2 fold. In addition, the “Emax greater than that induced by WT DLL4” value in the test on Notch1 [4] (non-specific adsorption) amounted to 20%. Besides, the “EC50 for Notch1 activation” value in the test with Notch1 [4] is recorded as 0.009 ng/mm^2. In addition, the “improvement in Notch activation efficiency vs WT DLL4” value with Notch1 [4] (ratio of EC50, non-specific adsorption) was found to be 250 fold. Further, in the test with Notch1 [5], the EC50 stood at 1.7 nM and the “maximum level of Notch1 activation, oriented coupling versus non-specific adsorption” value is listed as “higher maximum level”.

B2: WT DLL4: human wild-type Delta-like 4 (N-EGF5, residues 27-400), SEQ ID NO: 1 (protein)
chain: SGVFQLQLQEFINERGVLASGRPCEPGCRTFFRVCLKHFQAVVSPGPCTFGTVSTPVLGTNSFAVRDDSSGGGRNPLQLPFNFTWPGTFSLIIEAWHAPGDDLRPEALPPDALISKIAIQGSLAVGQNWLLDEQTSTLTRLRYSYRVICSDNYYGDNCSRLCKKRNDHFGHYVCQPDGNLSCLPGWTGEYCQQPICLSGCHEQNGYCSKPAECLCRPGWQGRLCNECIPHNGCRHGTCSTPWQCTCDEGWGGLFCDQDLNYCTHHSPCKNGATCSNSGQRSYTCTCRPGYTGVDCELELSECDSNPCRNGGSCKDQEDGYHCLCPPGYYGLHCEHSTLSCADSPCFNGGSCRERNQGANYACECPPNFTGSNCE
As to B2, the “reduction in reporter signal” value with Notch3 [1] is 10-40%. Also, in the test on Notch1 [4], the “EC50 for Notch1 activation” value was 2.3 ng/mm^2. In the test with Notch1 [5], the EC50 was found to be 16 nM and the “maximum level of Notch1 activation, oriented coupling versus non-specific adsorption” value was “higher maximum level”.

These data come from patent US20260055369A1, “METHOD FOR GENERATING CELLS OF THE T CELL LINEAGE WITH ENGINEERING BROADLY REACTIVE HUMAN NOTCH LIGAND” (H. Lee Moffitt Cancer Center and Research Institute, Inc., priority 2022, published 2026).
